{
  "source": "paper PMC11732463",
  "key": {"[1]": {"test": "in vitro microsomes, NBD-sphingosine + C16:0-CoA, HPLC", "conditions": "glycan lost; control: WT CerS6 microsomes"}, "[2]": {"test": "in situ 17C-sphingosine labeling, LC/MS of 17C-Sph-C16:0-ceramide", "conditions": "glycan lost; control: WT CerS6 in CerS6 KO HCT116"}, "[3]": {"test": "Western blot of microsomal fractions", "conditions": "glycan lost; control: WT CerS6 microsomes"}},
  "data": [
    {"protein": "ceramide synthase 6 (CerS6): N18A (protein) parent chain: MAGILAWFWNERFWLPHNVTWADLKNTEEATFPQAEDLYLAFPLAFCIFMVRLIFERFVAKPCAIALNIQANGPQIAPPNAILEKVFTAITKHPDEKRLEGLSKQLDWDVRSIQRWFRQRRNQEKPSTLTRFCESMWRFSFYLYVFTYGVRFLKKTPWLWNTRHCWYNYPYQPLTTDLHYYYILELSFYWSLMFSQFTDIKRKDFGIMFLHHLVSIFLITFSYVNNMARVGTLVLCLHDSADALLEAAKMANYAKFQKMCDLLFVMFAVVFITTRLGIFPLWVLNTTLFESWEIVGPYPSWWVFNLLLLLVQGLNCFWSYLIVKIACKAVSRGKVSKDDRSDIESSSDEEDSEPPGKNPHTATTTNGTSGTNGYLLTGSCSMDD", "values": [
      {"measurement": "enzymatic_activity", "setting": "[1]", "result": "decreases, N18A CerS6 activity is not statistically different than that of the LacZ microsomes"},
      {"measurement": "enzymatic_activity", "setting": "[2]", "result": "decreases, was approximately equal to that of LacZ expressing cells"},
      {"measurement": "expression_or_secretion", "setting": "[3]", "result": "increases"}
    ]}
  ]
}
